Substrate in the series: OC[C@H]1OC(O)[C@H](O)[C@@H](O)[C@@H]1O
The series can be described thus: purified protein. It is filed as biochemical, Aspergillus niger. The settings on record: apparent Km of the whole cascade with free HRP, glucose 50-175 µM (all below Km), TMB 2 mM, 0.2 M acetate buffer (pH 4 in the standard assay), 20-23 °C, free enzymes.

Results on 1 protein are retold here after paper PMC9864776, “Synthesis of Novel Polymer-Assisted Organic-Inorganic Hybrid Nanoflowers and Their Application in Cascade Biocatalysis” (Molecules, 2023).

As usually defined, the Km is the concentration of substrate that gives half-maximal velocity.

B1: glucose oxidase (GOx), Aspergillus niger type VIII (Aspergillus niger) (protein)
chain: LPHYIRSNGIEASLLTDPKDVSGRTVDYIIAGGGLTGLTTAARLTENPNISVLVIESGSYESDRGPIIEDLNAYGDIFGSSVDHAYETVELATNNQTALIRSGNGLGGSTLVNGGTWTRPHKAQVDSWETVFGNEGWNWDNVAAYSLQAERARAPNAKQIAAGHYFNASCHGVNGTVHAGPRDTGDDYSPIVKALMSAVEDRGVPTKKDFGCGDPHGVSMFPNTLHEDQVRSDAAREWLLPNYQRPNLQVLTGQYVGKVLLSQNGTTPRAVGVEFGTHKGNTHNVYAKHEVLLAAGSAVSPTILEYSGIGMKSILEPLGIDTVVDLPVGLNLQDQTTATVRSRITSAGAGQGQAAWFATFNETFGDYSEKAHELLNTKLEQWAEEAVARGGFHNTTALLIQYENYRDWIVNHNVAYSELFLDTAGVASFDVWDLLPFTRGYVHILDKDPYLHHFAYDPQYFLNELDLLGQAAATQLARNISNSGAMQTYFAGETIPGDNLAYDADLSAWTEYIPYHFRPNYHGVGTCSMMPKEMGGVVDNAARVYGVQGLRVIDGSIPPTQMSSHVMTVFYAMALKISDAILEDYASMQ
notes: commercial native enzyme, Merck/Sigma Aldrich, type VIII; free in solution, together with HRP
For B1, the Km was 1.198 mM.
